Assay results from the supplement of paper PMC10567573.

B1: INTS3 (parent)
chain: FSDDEEDLNSKGKKREFRFHPIKE
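Also: lentivirally expressed fusions sorted by FACS into six bins by GFP to DsRed ratio, PSI derived from sequencing read proportions per bin multiplied by bin number.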

Variants of: B1
Assay: protein stability index of a GFP-peptide fusion (GPS, HEK-293T) (PSI 1-6); higher = more stable
Conditions: c terminus: a fixed tail appended
Variant D3F has a protein stability index of 2.38. In the case of D3G, the protein stability index is reported as 2.85. With D3H the protein stability index was 2.69. With D3I the protein stability index was 2.09. With D3K the protein stability index was 2.59. D3L gave a protein stability index of 2.23. Work on D3M yielded a protein stability index of 2.55. In the case of D3N, the protein stability index is reported as 2.57. For D3P, the protein stability index was 2.29. For D3Q, the protein stability index was 2.58. D3R gave a protein stability index of 2.19. With D3S the protein stability index was 2.55. D3T showed a protein stability index of 2.9. D3V showed a protein stability index of 2.61. Work on D3W yielded a protein stability index of 2.45. D3Y gave a protein stability index of 2.32. Variant D4A has a protein stability index of 2.72. With D4C the protein stability index was 2.4. Variant D4E has a protein stability index of 3.05. For D4F, the protein stability index was 2.19. With D4G the protein stability index was 2.52. With D4H the protein stability index was 2.95. In the case of D4I, the protein stability index is reported as 2.38. In the case of D4K, the protein stability index is reported as 2.02. Variant D4L has a protein stability index of 2.43. For D4M, the protein stability index was 2.4. Work on D4N yielded a protein stability index of 2.82. D4P showed a protein stability index of 2.53. D4Q showed a protein stability index of 2.9. In the case of D4R, the protein stability index is reported as 1.85. With D4S the protein stability index was 2.75. For D4T, the protein stability index was 2.56. Work on D4V yielded a protein stability index of 2.23. In the case of D4W, the protein stability index is reported as 2.4. Work on D4Y yielded a protein stability index of 2.51. E5A showed a protein stability index of 2.81. With E5C the protein stability index was 2.49. E5D showed a protein stability index of 2.68. E5F gave a protein stability index of 2.41. In the case of E5G, the protein stability index is reported as 2.44. For E5H, the protein stability index was 2.18. Variant E5I has a protein stability index of 2.81. Variant E5K has a protein stability index of 2.17. E5L gave a protein stability index of 2.55. For E5M, the protein stability index was 2.61. Variant E5N has a protein stability index of 2.39. Work on E5P yielded a protein stability index of 2.48. For E5Q, the protein stability index was 2.3. With E5R the protein stability index was 2. Variant E5S has a protein stability index of 2.1. Variant E5T has a protein stability index of 2.68. E5V showed a protein stability index of 2.9. E5W showed a protein stability index of 1.88. E5Y gave a protein stability index of 2.29. In the case of E6A, the protein stability index is reported as 2.6. Variant E6C has a protein stability index of 2.62. Work on E6D yielded a protein stability index of 2.8. Variant E6F has a protein stability index of 2.13. With E6G the protein stability index was 2.7. For E6H, the protein stability index was 2.29. In the case of E6I, the protein stability index is reported as 2.27. E6K showed a protein stability index of 2.61. E6L showed a protein stability index of 2.69. Work on E6M yielded a protein stability index of 2.18. In the case of E6N, the protein stability index is reported as 2.1. E6P showed a protein stability index of 2.36. For E6Q, the protein stability index was 2.29. Work on E6R yielded a protein stability index of 2.07. For E6S, the protein stability index was 2.15. For E6T, the protein stability index was 3.08. In the case of E6V, the protein stability index is reported as 2.27. For E6W, the protein stability index was 2.32. Variant E6Y has a protein stability index of 2.24. For D7A, the protein stability index was 2.59. D7C gave a protein stability index of 1.99. Work on D7E yielded a protein stability index of 3.14. In the case of D7F, the protein stability index is reported as 2.47. For D7G, the protein stability index was 2.13. Variant D7H has a protein stability index of 2.52. D7I gave a protein stability index of 2.12. In the case of D7K, the protein stability index is reported as 2.04. D7L showed a protein stability index of 2.56. With D7M the protein stability index was 2.59. D7N showed a protein stability index of 2.29. With D7P the protein stability index was 2.18. In the case of D7Q, the protein stability index is reported as 2.15. Work on D7R yielded a protein stability index of 1.92. For D7S, the protein stability index was 2.66. Work on D7T yielded a protein stability index of 2.58. Variant D7V has a protein stability index of 2.7. In the case of D7W, the protein stability index is reported as 2.23. Work on D7Y yielded a protein stability index of 2.23. For L8A, the protein stability index was 3.35. For L8C, the protein stability index was 2.99. Work on L8D yielded a protein stability index of 3.26. In the case of L8E, the protein stability index is reported as 3.4. L8F gave a protein stability index of 2.75. L8G gave a protein stability index of 3.29. L8H showed a protein stability index of 2.73. Work on L8I yielded a protein stability index of 2.83. L8K showed a protein stability index of 2.78. Work on L8M yielded a protein stability index of 2.78. In the case of L8N, the protein stability index is reported as 2.99. L8P showed a protein stability index of 3.4. L8Q showed a protein stability index of 3.44. With L8R the protein stability index was 2.94. Variant L8S has a protein stability index of 3.37. Work on L8T yielded a protein stability index of 3.23. Variant L8V has a protein stability index of 2.99. Work on L8W yielded a protein stability index of 2.84. In the case of L8Y, the protein stability index is reported as 3. With N9A the protein stability index was 3.15. With N9C the protein stability index was 2.67. N9D gave a protein stability index of 3.79. With N9E the protein stability index was 3.6. With N9F the protein stability index was 2.31. Variant N9G has a protein stability index of 2.82. Variant N9H has a protein stability index of 2.77. N9I gave a protein stability index of 2.06. N9K gave a protein stability index of 2.21. N9L showed a protein stability index of 2.99. With N9M the protein stability index was 2.66. Variant N9P has a protein stability index of 2.61. With N9Q the protein stability index was 2.68. N9R gave a protein stability index of 2.76. N9S showed a protein stability index of 2.98. Work on N9T yielded a protein stability index of 3.36. With N9V the protein stability index was 3.83. Variant N9W has a protein stability index of 2.12. In the case of N9Y, the protein stability index is reported as 2.29. Work on S10A yielded a protein stability index of 2.58. Work on S10C yielded a protein stability index of 3.08. For S10D, the protein stability index was 3.64. Variant S10E has a protein stability index of 2.99. For S10F, the protein stability index was 2.45. S10G showed a protein stability index of 2.9. For S10H, the protein stability index was 2.64. S10I gave a protein stability index of 2.17. In the case of S10K, the protein stability index is reported as 2.38. S10L showed a protein stability index of 2.57. In the case of S10M, the protein stability index is reported as 3.56. With S10N the protein stability index was 3.37. Variant S10P has a protein stability index of 2.63. For S10Q, the protein stability index was 3.43. For S10R, the protein stability index was 2.41. In the case of S10T, the protein stability index is reported as 2.87. In the case of S10V, the protein stability index is reported as 2.75. Variant S10W has a protein stability index of 3.56. S10Y gave a protein stability index of 2.59. K11A gave a protein stability index of 3.62. K11C gave a protein stability index of 2.99. Work on K11D yielded a protein stability index of 3.56. K11E showed a protein stability index of 3.38. Work on K11F yielded a protein stability index of 3.24. Work on K11G yielded a protein stability index of 3.02. Variant K11H has a protein stability index of 3.13. K11I showed a protein stability index of 3.48. In the case of K11L, the protein stability index is reported as 2.73. Work on K11M yielded a protein stability index of 2.79. K11N gave a protein stability index of 3.44. Variant K11P has a protein stability index of 3.38. K11Q showed a protein stability index of 3.62. Work on K11R yielded a protein stability index of 3.2. In the case of K11S, the protein stability index is reported as 3.22. With K11T the protein stability index was 3.35. With K11V the protein stability index was 2.89. With K11W the protein stability index was 1.9.
